B1: TNKS2 ARC5 (domain or fragment)
chain: GAMGSDLLRGDAALLDAAKKGCLARVKKLSSPDNVNCRDTQGRHSTPLHLAAGYNNLEVAEYLLQHGADVNAQDKGGLIPLHNAASYGHVDVAALLIKYNACVNATDKWAFTPLHEAAQKGRTQLCALLLAHGADPTLKNQEGQTPLDLVSADDVSALLTAAMPP

For assay [1], the target named is T1, MERIT40 (two peptides) (fluorescein or 5(6)-carboxyfluorescein fluorophore; the fluorescein is linked via β-Ala). Briefly: FP; MERIT40 II peptide (…).
Assay [2] addresses T1, MERIT40 (two peptides). Briefly: FP; MERIT40 I peptide (…).
The assay “TNKS2 ARC5” deals with B1. Briefly: FP.

Consider 2 molecules from publication PMC6082341 (2017).

Ends that are not written are not given here.

What is called Kd is the concentration at which binding is half-saturated. In the case of B1, the Kd in the assay with MERIT40 (two peptides) [1] stood at 3000 nM; with MERIT40 (two peptides) [2], 530 nM.

B2: 3BP2 TBM peptide (WT positive control) (peptide)
chain: LPHLQRSPPDGQSFRS
modifications: also: fluorescein or 5(6)-carboxyfluorescein linked via β-Ala, site not given here
In the assay with TNKS2 ARC5, B2 came in with a dissociation constant Kd of 390 nM.
